Results taken from the supplement of paper PMC10567573.

B1: GLT8D2 (parent)
chain: QEAKLLHWNGRHKPWDFPSVHNDL
B2: PTPN9 (parent)
chain: NKWTVQYNVSPLSWNVAVKFLMAR

Variants of: B1
Assay: protein stability index of a GFP-peptide fusion (GPS, HEK-293T) (PSI 1-6); higher = more stable
Details: c terminus: a fixed tail appended
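Note: lentivirally expressed fusions sorted by FACS into six bins by GFP to DsRed ratio, PSI derived from sequencing read proportions per bin multiplied by bin number.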

Protein stability index, by site and new letter:
D23: L 1.48 | Y 1.98 | F 2.6 | K 3.01 | S 2.17 | P 2.27 | I 2.27 | G 2.23 | M 1.92 | E 2.72 | N 1.86 | R 1.88 | H 2.38 | A 1.96 | Q 2.4 | W 2.48 | T 2.55 | V 2.81 | C 2.43
V20: R 2.94 | W 2.38 | D 3.53 | F 2.53 | E 3.63 | S 3 | T 2.52 | P 2.81 | G 2.84 | Y 2.06 | C 2.54 | H 2.77 | N 3.23 | I 2.78 | Q 3.17 | A 2.97 | K 2.56 | M 2.43 | L 2.41
S19: D 3.43 | T 2.33 | K 2.6 | R 2.38 | E 3.92 | N 2.84 | A 3.21 | H 2.58 | V 2.56 | G 2.51 | F 2.31 | I 2.5 | Q 2.95 | L 1.96 | W 1.61 | Y 2.12 | C 2.38 | M 2.79 | P 2.7
D16: Y 1.87
H21: I 2.77 | K 2.75 | A 2.9 | G 3.09 | T 3 | R 3 | Y 2.44 | F 2.75 | N 2.96 | P 2.41 | S 3.21 | C 2.48 | V 2.67 | M 3.05 | Q 2.94 | W 2.18 | L 2.39 | E 3.46 | D 3.39
N22: K 2.7 | M 2.01 | S 2.33 | E 3.2 | G 2.63 | A 2.9 | Y 1.91 | T 2.5 | Q 2.79 | F 2.08 | P 2.57 | D 3.27 | W 2.08 | R 2.35 | C 2.11 | L 2.53 | I 2.06 | H 2.47 | V 1.92
P18: L 2.25 | F 2.18 | E 2.98 | N 2.72 | Q 2.83 | C 2.6 | W 1.8 | M 2.26 | K 2.99 | Y 2.24 | H 2.58 | V 2.82 | I 2.23 | S 2.59 | G 2.32 | T 2.32 | R 2.41 | D 3.06 | A 2.23
L24: T 3.41 | F 2.14 | D 3.75 | Y 2.98 | P 2.85 | M 2.98 | I 2.44 | C 3.01 | W 2.06 | Q 3.5 | H 2.65 | K 2.87 | A 3.33 | V 2.42 | S 3.51 | N 3.25 | G 3.07 | R 2.74 | E 4.01
F17: N 2.85 | I 3.1 | V 3.18 | A 3.45 | W 2.58 | D 3.36 | C 3.14 | M 3.22 | R 3.04 | H 3.24 | E 4.18 | Q 3.3 | Y 2.81 | T 3.17 | S 3.96 | G 3.15 | L 3.05 | K 3.16 | P 3.24

Variants of: B2
Assay: as above
Details: c terminus: a fixed tail appended

Protein stability index: each site, then its substitutions
T4: D 2.22 | Q 2.27 | Y 3.46 | M 2.57 | A 2.55 | N 1.81 | L 1.71 | P 1.76
Y7: N 2.14 | V 3.44 | Q 1.75 | F 3.3 | H 1.68 | L 2.76
